Experimental data as given in patent publication US20230287372.

Columns and labels:
Assay in all cases: cell_activity
SeqID63 (WO2019/030695) = details: PAM TTTA
SuCms1 = details: PAM TTTA
[1] = test system: T1, BEC10 (Artificial (engineered chimeric Cms1-like CRISPR nuclease)); details: no-spacer negative control; 30 C
T1 sequence: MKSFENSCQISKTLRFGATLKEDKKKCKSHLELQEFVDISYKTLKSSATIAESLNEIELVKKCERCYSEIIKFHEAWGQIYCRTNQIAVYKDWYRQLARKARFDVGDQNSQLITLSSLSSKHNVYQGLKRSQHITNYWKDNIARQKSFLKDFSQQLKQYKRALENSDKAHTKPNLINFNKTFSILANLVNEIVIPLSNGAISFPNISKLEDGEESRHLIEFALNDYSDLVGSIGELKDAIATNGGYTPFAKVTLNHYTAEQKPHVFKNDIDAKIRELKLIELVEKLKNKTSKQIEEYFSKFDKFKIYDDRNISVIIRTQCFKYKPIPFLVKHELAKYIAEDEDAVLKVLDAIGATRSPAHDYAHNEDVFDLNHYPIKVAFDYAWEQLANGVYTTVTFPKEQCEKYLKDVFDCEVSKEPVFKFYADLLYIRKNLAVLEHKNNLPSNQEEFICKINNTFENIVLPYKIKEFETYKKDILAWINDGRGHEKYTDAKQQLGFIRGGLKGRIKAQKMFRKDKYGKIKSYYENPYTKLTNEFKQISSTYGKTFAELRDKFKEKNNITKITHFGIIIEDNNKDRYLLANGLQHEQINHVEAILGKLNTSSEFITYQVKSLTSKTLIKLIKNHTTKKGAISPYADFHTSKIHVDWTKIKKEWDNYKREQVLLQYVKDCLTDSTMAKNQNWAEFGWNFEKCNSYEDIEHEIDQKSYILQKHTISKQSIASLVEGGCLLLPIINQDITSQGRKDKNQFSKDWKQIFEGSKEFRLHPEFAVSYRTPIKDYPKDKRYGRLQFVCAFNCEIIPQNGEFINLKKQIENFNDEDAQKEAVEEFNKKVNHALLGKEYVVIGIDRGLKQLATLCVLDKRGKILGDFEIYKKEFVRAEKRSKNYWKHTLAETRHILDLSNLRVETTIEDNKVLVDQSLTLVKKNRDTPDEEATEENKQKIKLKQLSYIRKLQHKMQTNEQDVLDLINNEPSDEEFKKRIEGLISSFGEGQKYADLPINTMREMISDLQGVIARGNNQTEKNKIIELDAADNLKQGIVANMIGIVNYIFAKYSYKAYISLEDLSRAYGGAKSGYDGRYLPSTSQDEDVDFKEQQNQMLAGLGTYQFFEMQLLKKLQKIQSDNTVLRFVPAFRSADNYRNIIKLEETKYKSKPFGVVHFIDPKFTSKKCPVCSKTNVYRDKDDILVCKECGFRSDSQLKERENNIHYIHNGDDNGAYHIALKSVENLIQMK

[2] = test system: T2, BEC67 (Artificial (engineered chimeric Cms1-like CRISPR nuclease)); details: no-spacer negative control; 30 C
T2 sequence: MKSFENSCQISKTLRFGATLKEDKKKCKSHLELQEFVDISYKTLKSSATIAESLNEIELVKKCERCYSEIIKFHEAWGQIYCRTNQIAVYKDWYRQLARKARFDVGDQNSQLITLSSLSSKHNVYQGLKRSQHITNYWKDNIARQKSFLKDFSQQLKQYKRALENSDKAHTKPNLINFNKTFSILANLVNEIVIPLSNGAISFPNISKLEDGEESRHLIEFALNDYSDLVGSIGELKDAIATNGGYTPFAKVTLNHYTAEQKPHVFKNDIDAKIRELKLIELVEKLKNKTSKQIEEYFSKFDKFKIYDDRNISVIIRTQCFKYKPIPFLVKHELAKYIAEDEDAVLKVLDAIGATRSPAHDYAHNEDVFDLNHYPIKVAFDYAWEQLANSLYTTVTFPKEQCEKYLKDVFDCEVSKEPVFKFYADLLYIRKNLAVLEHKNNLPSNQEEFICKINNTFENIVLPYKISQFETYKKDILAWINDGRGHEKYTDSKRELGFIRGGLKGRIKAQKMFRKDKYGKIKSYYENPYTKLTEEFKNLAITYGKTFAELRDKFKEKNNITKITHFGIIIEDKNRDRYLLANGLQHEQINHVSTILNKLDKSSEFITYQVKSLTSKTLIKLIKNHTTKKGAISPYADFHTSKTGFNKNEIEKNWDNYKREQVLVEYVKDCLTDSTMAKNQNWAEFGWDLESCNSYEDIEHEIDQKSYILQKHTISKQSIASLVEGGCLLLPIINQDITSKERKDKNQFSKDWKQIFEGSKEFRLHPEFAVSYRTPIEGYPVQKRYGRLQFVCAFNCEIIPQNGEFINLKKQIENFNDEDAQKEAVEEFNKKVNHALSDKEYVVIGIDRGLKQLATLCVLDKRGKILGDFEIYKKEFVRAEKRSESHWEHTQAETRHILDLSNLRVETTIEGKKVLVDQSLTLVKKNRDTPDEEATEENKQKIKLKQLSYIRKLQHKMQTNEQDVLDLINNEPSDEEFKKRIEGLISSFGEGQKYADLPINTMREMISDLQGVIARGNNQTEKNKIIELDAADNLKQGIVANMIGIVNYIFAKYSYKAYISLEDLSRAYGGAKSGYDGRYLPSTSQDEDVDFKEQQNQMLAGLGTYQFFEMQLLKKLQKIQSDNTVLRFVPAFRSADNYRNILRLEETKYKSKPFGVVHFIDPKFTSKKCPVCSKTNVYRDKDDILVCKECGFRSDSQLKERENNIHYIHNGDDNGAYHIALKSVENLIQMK

[3] = test system: T3, BEC85 (Artificial (engineered chimeric Cms1-like CRISPR nuclease)); details: no-spacer negative control; 30 C
T3 sequence: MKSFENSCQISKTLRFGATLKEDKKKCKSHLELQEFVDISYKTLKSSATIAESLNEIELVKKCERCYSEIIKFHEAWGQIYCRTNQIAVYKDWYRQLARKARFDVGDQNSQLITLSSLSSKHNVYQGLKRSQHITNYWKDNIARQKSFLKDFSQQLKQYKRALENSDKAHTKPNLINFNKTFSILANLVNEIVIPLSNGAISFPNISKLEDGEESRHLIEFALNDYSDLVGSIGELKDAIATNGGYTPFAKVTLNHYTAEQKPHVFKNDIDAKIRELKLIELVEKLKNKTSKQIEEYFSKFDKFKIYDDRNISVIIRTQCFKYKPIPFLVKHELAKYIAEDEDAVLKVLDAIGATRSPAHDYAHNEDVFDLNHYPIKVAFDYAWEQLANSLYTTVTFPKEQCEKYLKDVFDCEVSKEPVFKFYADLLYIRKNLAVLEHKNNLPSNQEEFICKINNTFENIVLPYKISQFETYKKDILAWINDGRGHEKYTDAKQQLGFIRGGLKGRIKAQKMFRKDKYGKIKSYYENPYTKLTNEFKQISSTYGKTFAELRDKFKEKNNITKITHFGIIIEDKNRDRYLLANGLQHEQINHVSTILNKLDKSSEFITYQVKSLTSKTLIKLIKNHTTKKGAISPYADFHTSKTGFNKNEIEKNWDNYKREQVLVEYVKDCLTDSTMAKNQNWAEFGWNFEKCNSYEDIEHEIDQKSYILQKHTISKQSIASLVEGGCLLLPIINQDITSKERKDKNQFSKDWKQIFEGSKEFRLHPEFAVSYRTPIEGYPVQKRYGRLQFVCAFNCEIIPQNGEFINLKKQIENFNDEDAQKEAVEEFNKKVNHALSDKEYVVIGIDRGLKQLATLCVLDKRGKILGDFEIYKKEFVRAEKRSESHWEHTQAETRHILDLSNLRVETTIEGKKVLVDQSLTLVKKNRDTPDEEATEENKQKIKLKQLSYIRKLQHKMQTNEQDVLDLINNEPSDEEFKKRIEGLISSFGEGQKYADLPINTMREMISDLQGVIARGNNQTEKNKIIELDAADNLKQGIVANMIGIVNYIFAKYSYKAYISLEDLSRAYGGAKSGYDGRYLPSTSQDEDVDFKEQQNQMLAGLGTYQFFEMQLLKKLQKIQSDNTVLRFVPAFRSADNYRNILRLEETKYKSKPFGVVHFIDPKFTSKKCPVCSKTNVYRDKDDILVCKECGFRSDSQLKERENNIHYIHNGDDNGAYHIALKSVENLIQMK

Ade2 gRNA for Cms1 comparators ; Ade2 target
activity (% editing efficiency) (SeqID63 (WO2019/030695); S. cerevisiae 21 C): 0.2 | activity (% editing efficiency) (SeqID63 (WO2019/030695); S. cerevisiae 30 C, comparable to negative control): 0.2 | activity (% editing efficiency) (SuCms1; S. cerevisiae 21 C, near negative control): 0.3 | activity (% editing efficiency) (SuCms1; S. cerevisiae 30 C, 3% fully edited): 5

gRNA cassette without spacer ; Ade2 target
activity (% editing efficiency) [1]: 0.2 | activity (% editing efficiency) [2]: 0.2 | activity (% editing efficiency) [3]: 0.2

rpoB gRNA for Cms1 comparators ; rpoB target
activity (% colony reduction) (SeqID63 (WO2019/030695); E. coli depletion assay 37 C): 0 | activity (% colony reduction) (SuCms1; E. coli depletion assay 37 C): 72
